Experiment: soluble on expression in E. coli; label from the status in PepcDB or PDB records
With “MADRRNLFFFYGDDKATLVEKMKPIYRILEENGFTILDHPKNANAIVSVGDDATFLQAVRKTGFREDCLYAGISTKDEISFYCDFHIDHVDTALQEITKNEIEVRKYPTIQVDVDGSTSFHCLNEFSLRSSIIKTFVVDVHVDDLYFETFRGDGLVVSTPTGSTAYNKSLHGAVVDPLIPCFQVSELASLNNNTYRTLGSPFILNHERTLTLKLRPDGNDYPVIGMDNEALSIKQVEKAVVRLSDKQIKTVKLKNNSFWEKVQRTFLLEHHHHHH” the “soluble on expression in E. coli” value was “soluble”. In the case of “MGCMKSKETFPFPTTLDIDKLHESEEAFIPDDSSQYRTPSPGEQQQVQEVKKLPEPGAVIGALILEFADRLASEIVEDALQQWACENIQYYNIPYIESEGSDTTIN”, the “soluble on expression in E. coli” value is reported as “soluble”. With “MSLQINVNPQAALSQNAIVNNSSFSLVSKDVRSAQYVALVDSGRNNIEPIHPRQNVRITLENALAEQFGSQGFRLSVNSENTITLEIQELLVSVKHSIMENQMDGSVVLEITAETPRGKLVKSYTGTAKRTGVLSASNDEIETVLNDVINTVLKEIANDAELQNYMQERFNGEGHHHHHH” the “soluble on expression in E. coli” value was “soluble”. With “MGHHHHHHSHMKDIGHLQHLAQRLQWNRRAVNICGMHGWTKDLSPHSRMPSMLEHVKHYMSC” the “soluble on expression in E. coli” value was “not soluble”. In the case of “ALESARAGYWEWNVENGTILIDRQWAVISGYNSADFDMLTMEQWRELCHPADLGVVTKSIEELLDGSMERLELELRVRHKNGEWIRVLDCGKVTGRSKNGKPSCLTGSRQALASLHDK”, the “soluble on expression in E. coli” value is reported as “soluble”. In the case of “MAQHFRLSTAARQLSSDSLVCLPDAEIFQRLKQARWGNADNFVCPHCHIRHLAYFISTRKQWQCKHCQHRFSITAGTIFQGAKLPLRKILLAILYFATESKGLSAIALSHKLNVQYKTAWVLLHKFRESLDKAKDLTPLNGEVHIDGAYTNYYIRPKNFRHKRIDRRKKRYQRADKSCVLVFRQRAANQAVMKGADRSIVALVKEENTKDVLELTQRLVKPNSTIHADENPAYDCLAFHYDLWRVNHSQEYRSIEGITNNLAESFFARLRRAITGIYHKMSNKYLMYYANEMVWREDHRRKSVKEKFEQLLTCCLNTLPSRDFTGYWQGNKKGEAVFGLASLTASNDLHYLKAALEHHHHHH”, the “soluble on expression in E. coli” value is reported as “soluble”. With “MAHHHHHHMAANGCFIAALIARTHDRLPLCSYTDDNYSNANVIRQQEQRIVERMESPAGGTDRAAAKGSYYESFDHKDNVYFAFQDAATDLTLVVAVNKLLLRNSGDINGMNKLACGLLDLIFSEFIQMYTPAEIGAPNVRAYQFIKFDATLRKCVTRIMQQDRTTGDRIV” the “soluble on expression in E. coli” value was “not soluble”. For “MENLTVTGLVRLIGAGATMIYVVTDNERRTEQIATQAAARLKGAGSPYVWTCTEGFSRDGAVVEGIDDPVAAVGFALAQPGPLLFLFKDLPWFWGDNPYLIRALKDFAMRAKAKAIVVLGQQEGIPAALREEFVILQQGLPAMEEIKAFFEQARARDPQLAQACQERPGLLNDLVVAAQGLDLLDVERGMRGARAAGEAGGEGLVRSIFETKRAIIRTGGIMEFVANDVTPDQVGGMENLKQWMARREQAFGLEGISSGANLPKGVLMMGIAGCGKSLFVKAIAATWRLPLIRLDMAAVYDGSYGTPESSLRKAFRTAEAVAPCVLWIDEIEAGISTQGFKAEGGPASRILGSFLTWMQEKRAPVFVAATANAIEMLPAEIIRKGRFDEIFYIGLPETKGREEIFRIHLTRRKIGLSAFDVPLLAGSTKGFSGAEIEQAVQAAAFEALTGKRPMTQQDLMAAISRTVPLSVTMAEQIKKIEAWAFKRAVPA”, the “soluble on expression in E. coli” value was “soluble”. For “MLFCPLLLIFLIANSNGEPLPPDMKDLQNHLDTFQKAVDTGDKKALREMMPVNQRISEEKLDEFIKTRKSFKMTAKSAQATSSGITGKVDYAIGKATLLLDVVLEKSSSSPSAYKFVSISKQSIPSQRREIPDCFYTLLIMCPYDLIVALAQTAENVLKG”, the “soluble on expression in E. coli” value was “not soluble”. In the case of “MSLDQTVSNNFKMIYIASCGEGINAFHLVESTLVQFPDSDITVVKVPHIRTESQVDHLLDRVKDVESLIAHTIVEPNLRQYLVTKAEEHKIVTIDLMGQVLNKIETFLSIRPLGKPGLYRETHQVDLKQVTAIDFALAHDDGLRPESLDEAEIILVGLSRAGKTPLSMYMGVMGWKVANIPYVPGVPMPQTLDEVDRRRVIALNINIEQLLSHRKMRQESLGTSDMHAYSRRQEVEVEVQTAQKYYITKGFSMIDVSNKPIETSAEEIAEMITRRFKAQAHLKDEGHHHHHH”, the “soluble on expression in E. coli” value is reported as “soluble”. With “MSLAADYTEQDAMRVQAVKTYIDNVLQEGRSQIKTTPLLADGINTTTRKPVEWIYPDGRTATISNFANQQNFLRALTAMSVVTEDQRYQLEAVRITRYFMDNFIADNGLFYWGGHRFVNLDTLELEGPQNKNSVHELKNHYPYYPFLYHVDPHATERYIKAFWQAHVEDWQSLDMGRHGSYSKNYDDKVFHRPIPASLVDQSKLPIMPETKGLTFINAGSDLIYAAYQLDWLAPSANAQGSAAWGQYLMTQYKLAKHPKTGAPVYQFTSPKKREWPPQSDKDTNSKYGDRAARQFGPELGNIAREGNVLFKSNDKSIVFNNALIELHLAEQRNDAAIREQVVDALLNFYRLAYNPENGTIKPIFSDGTSIEGIPLARDGYYGPKGRVFNAHKPKTEEYLLPILRAYRLQADPELWQLAANMTHHYGWGSLGNDAKAKPTLNMQLSSVSPMTLFSAIELYQITQQPEYLEFARAAADKLVEKRFVRGYFLANPRYLNASIDAIEPLALLTLDATLKGKTAQVAPYLSGSGYIHGEFAGKENAYDTNEIYKQTREGHHHHHH” the “soluble on expression in E. coli” value was “soluble”. With “MGSDKIHHHHHHMALAKLPQLESVFLTDAGLETDFIFNRGIDLPYFASITLLQSSDGKIALEEYFRGFLELARRMRCGLILESATWRASPDWAEPLGLSQQELDTLNTSAIAILRDLRDEFGSTMPAVVISGCLGPRGDGYDPGKIMSEEGAEAYHRHQAEVLASAGVDQLTAITMTNVPEAIGIAKAAKSLAVPVAISFTVETDGRLPTGDRLSDALRAVDQATASTPAYYMINCAHPSHFAAVLEDGADWVNRIGGLRANASRCSHAEVDAMSELDRGNPEELAALHSELRLRFPHINVLGGCCGTDLDHITAIAEACL” the “soluble on expression in E. coli” value was “not soluble”. With “MVAKGRIIRVTGPLVVADGMKGAKMYEVVRVGELGLIGEIIRLEGDKAVIQVYEETAGVRPGEPVVGTGASLSVELGPGLLTSIYDGIQRPLEVIREKTGDFIARGVTAPALPRDKKWHFIPKAKVGDKVVGGDIIGEVPETSIIVHKIMVPPGIEGEIVEIAEEGDYTIEEVIAKVKTPSGEIKELKMYQRWPVRVKRPYKEKLPPEVPLITGQRVIDTFFPQAKGGTAAIPGPFGSGKTVTQHQLAKWSDAQVVIYIGCGERGNEMTDVLEEFPKLKDPKTGKPLMERTVLIANTSNMPVAAREASIYTGITIAEYFRDMGYDVALMADSTSRWAEALREISGRLEEMPGEEGYPAYLASKLAEFYERAGRVVTLGSDYRVGSVSVIGAVSPPGGDFSEPVVQNTLRVVKVFWALDADLARRRHFPAINWLTSYSLYVDAVKDWWHKNIDPEWKAMRDKAMALLQKESELQEIVRIVGPDALPERERAILLVARMLREDYLQQDAFDEVDTYCPPEKQVTMMRVLLNFYDKTMEAINRGVPLEEIAKLPVREEIGRMKFERDVSKIRSLIDKTNEQFEELFKKYGA” the “soluble on expression in E. coli” value was “soluble”. In the case of “GPGSMQAARLPTRIATGDGEDAPQTPPVHAPATPAATDEQETDQPQQAVGEATTPADRAGFQPPSAEALATRQSRNSAGAEKMGGGQRLRDHTTAQRRLMQDYRTFQKNMAEGTSSNITALPVDGDFFHWHAVISGPCDTPWEGGLFKLDLIFGDDYPFSPPKVRFRTKDVFHPNVYVDGNICMDTLKSSWQSSLNLEALLISIQSLLSDPNPLSAANGAAARLLTENRSAYDEKIRALVEESLEQSFSMDDDSDDAEVDEEAV”, the “soluble on expression in E. coli” value is reported as “soluble”. In the case of “GMKEIRIILMGTGNVGLNVLRIIDASNRRRSAFSIKVVGVSDSRSYASGRNLDISSIISNKEKTGRISDRAFSGPEDLMGEAADLLVDCTPASRDGVREYSLYRMAFESGMNVVTANKSGLANKWHDIMDSANQNSKYIRYEATVAGGVPLFSVLDYSILPSKVKRFRGIVSSTINYVIRNMANGRSLRDVVDDAIKKGIAESNPQDDLNGLDAARKSVILVNHIFGTEYTLNDVEYSGVDERSYNANDRLVTEVYVDDRRPVAVSRIISLNKDDFLMSIGMDGLGYQIETDSNGTVNVSDIYDGPYETAGAVVNDILLLSKVQK”, the “soluble on expression in E. coli” value is reported as “soluble”.

— the DeepSol protein solubility set
